Measured values from patent publication US8563520B2, “Treatment of ocular disease with inhibitors of alpha2 macroglobulin protein” (McGill University, priority 2005, dated 2013).
Where two headings read alike, the source gives them in different places.

Tested on: Rat Retina
Description: The following experiment was conducted in order to assess changes in gene expression induced in the retina after intraocular injection of α2 macroglobulin protein. 2 μg of α2 macroglobulin protein was intraocularly injected into the right eye of rats (n=3) and the left eye was used as a control. One rat was tested at Day 3, one rat was tested at Day 7 and one rat was tested at Day 14. Retinas were isolated and mRNA was collected. Samples from each of the rats were studied by gene microassays. Retinas were carefully dissected out to insure that only retinal mRNAs were prepared for gene microarray studies. Samples were obtained from control eyes.
Total RNA was isolated from retinal tissue using TRIZOL® (Life Technologies). RNA was then further purified using the RNAEASY® (QIAGEN®). The integrity of the RNA samples was assessed by running aliquots on RNA 6000 Nano LabChip (Agilent) using the 2100 bioanalyzer (Agilent).
Probe synthesis, hybridization and scanning were done according to Affymetrix protocol, as a service at the McGill University and Genome Quebec Innovation Centre. For the experiments shown, Rat U34 Genome Arrays (8,700 genes, Affymetrix) were used. Briefly, RNA samples were first converted to double stranded cDNA (T7-(dT)24 primer (Genset)). Then the cDNAs were purified and used to generate the biotinylated cRNA probes (Bioarray High Yield RNA transcript labeling kit (Enzo diagnostics)). An aliquot of the purified cRNA was analyzed on RNA 6000 Nano LabChip (Agilent) to verify the integrity and size distribution. Immediately after hybridization the chip was placed in the Affymetrix GeneChip Fluidics Station 400 (Affymetrix). In total, 10 low-stringency washes (63 SSPE, 0.01% Tween-20, 0.005% Antifoam) and 4 high-stringency washes (100 mM MES, 0.1 M NaCl, 0.01% Tween-20, 50 C) were performed (all reagents from Sigma). The array was then incubated with SAPE® (streptavidin/phycoerythrin stain, Molecular Probes), followed by 10 low stringency washes. The array was incubated with biotinylated anti-streptavidin antibody (Vector Laboratories) and washed again with 15 low stringency washes. Specifically bound probe was detected by placing the array in the Agilent GeneArray scanner 2500 (Affymetrix). The scanned images were analyzed using the Microarray Analysis Suite version 5.0 (Affymetrix).
The fold change was analyzed by […] data for the control eye from the data on the eye injected with α2 macroglobulin. A fold change of 2 or greater indicates upregulation. A fold of 0.5 to 2 indicates no change. A fold change of 0.5 or less indicates downregulation.

[1] = gene complexin 2 (1368584_a_at)
[2] = gene crystallin, beta A2 (1388385_at)
[3] = gene crystallin, beta B1 (1369985_at)
[4] = gene crystallin, beta B2 (1367684_at)
[5] = gene crystallin, beta B3 (1367990_at)
[6] = gene crystallin, gamma N (predicted) (1384241_at)
[7] = gene death effector domain-containing (1369003_at)
[8] = gene fibrinogen-like 2 (1392894_at)
[9] = gene forkhead box E3 (1370797_at)
[10] = gene glycoprotein 2 (zymogen granule membrane) (1386933_at)
[11] = gene glycoprotein (transmembrane) nmb (1368187_at)
[12] = gene guanylate nucleotide binding protein 2 (1368332_at)
[13] = gene interferon induced transmembrane protein 1 (predicted) (1372013_at)
[14] = gene lens intrinsic membrane protein 2 (1368493_at)
[15] = gene membrane metallo endopeptidase (1370072_at)
[16] = gene membrane-spanning 4-domains, subfamily A, member 6B (1390510_at)
[17] = gene procollagen, type III, alpha 1 (1370959_at)
[18] = gene procollagen, type IV, alpha 1 (1372439_at)
[19] = gene procollagen, type IV, alpha 1 (1373245_at)
[20] = gene serine (or cysteine) peptidase inhibitor, clade G, member 1 (1372254_at)
[21] = gene similar to Beta crystallin S (Gamma crystallin S) (1388435_at)
[22] = gene similar to FRBZ1 protein (FRBZ1) (predicted) (1398217_at)
[23] = gene similar to Phakinin (Beaded filament structural protein 2) (1383812_at)
[24] = gene similar to RCK (predicted) (1389868_at)
[25] = gene similar to RIKEN cDNA 1300010M03 (predicted) (1376087_at)
[26] = gene similar to RIKEN cDNA 1500009M05 (predicted) (1382193_at)
[27] = gene similar to RIKEN cDNA 4930555G01 (predicted) (1391152_at)
[28] = gene similar to RNA-binding protein Musashi2-S (predicted) (1390813_at)
[29] = gene similar to keratin complex 2, basic, gene 6a (1373349_at)
[30] = gene similar to mKIAA1450 protein (predicted) (1391315_at)
[31] = gene similar to serine (or cysteine) proteinase inhibitor (1388746_at)
[32] = gene solute carrier family 6 (neurotransmitter transporter, GABA) (1369715_at)
[33] = gene solute carrier family 6 (neurotransmitter transporter, taurine) (1368778_at)
[34] = gene spectrin alpha 1 (1386212_at)

B1: α2m: α2 macroglobulin protein injected intraocularly into normal rat eyes (protein, UniProt P06238 28-1472, looked up)
Alpha-2-macroglobulin: SAPQKPIYMVMVPSLLHAGTPEKACFLFSHLNETVAVRVSLESVRGNQSLFTDLVVDKDLFHCTSFTVPQSSSDEVMFFTVQVKGATHEFRRRSTVLVKKKESLVFAQTDKPIYKPGQTVRFRVVSLDESFHPLNELIPLLYIQDPKNNRIAQWQNFNLEGGLKQLSFPLSSEPTQGSYKVVIRTESGRTVEHPFSVEEFVLPKFEVRVTVPETITILEEEMNVSVCGIYTYGKPVPGRVTVNICRKYSNPSNCFGEESVAFCEKLSQQLDGRGCFSQLVKTKSFQLKRQEYEMQLDVHAKIQEEGTGVEETGKGLTKITRTITKLSFVNVDSHFRQGIPFVGQVLLVDGRGTPIPYETIFIGADEANLYINTTTDKHGLARFSINTDDIMGTSLTVRAKYKDSNACYGFRWLTEENVEAWHTAYAVFSPSRSFLHLESLPDKLRCDQTLEVQAHYILNGEAMQELKELVFYYLMMAKGGIVRAGTHVLPLKQGQMRGHFSILISMETDLAPVARLVLYAILPNGEVVGDTAKYEIENCLANKVDLVFRPNSGLPATRALLSVMASPQSLCGLRAVDQSVLLMKPETELSASLIYDLLPVKDLTGFPQGADQREEDTNGCVKQNDTYINGILYSPVQNTNEEDMYGFLKDMGLKVFTNSNIRKPKVCERLRDNKGIPAAYHLVSQSHMDAFLESSESPTETRRSYFPETWIWDLVVVDSAGVAEVEVTVPDTITEWKAGAFCLSNDTGLGLSPVVQFQAFQPFFVELTMPYSVIRGEAFTLKATVLNYLPTCIRVAVQLEASPDFLAAPEEKEQRSHCICMNQRHTASWAVIPKSLGNVNFTVSAEALNSKELCGNEVPVVPEQGKKDTIIKSLLVEPEGLENEVTFNSLLCPMGAEVSELIALKLPSDVVEESARASVTVLGDILGSAMQNTQDLLKMPYGCGEQNMVLFAPNIYVLDYLNETQQLTQEIKTKAIAYLNTGYQRQLNYKHRDGSYSTFGDKPGRNHANTWLTAFVLKSFAQARKYIFIDEVHITQALLWLSQQQKDNGCFRSSGSLLNNAMKGGVEDEVTLSAYITIALLEMSLPVTHPVVRNALFCLDTAWKSARGGAGGSHVYTKALLAYAFALAGNQDTKKEILKSLDEEAVKEEDSVHWTRPQKPSVSVALWYQPQAPSAEVEMTAYVLLAYLTTEPAPTQEDLTAAMLIVKWLTKQQNSHGGFSSTQDTVVALHALSKYGSATFTRAKKAAQVTIHSSGTFSTKFQVNNNNQLLLQRVTLPTVPGDYTVKVTGEGCVYLQTSLKYSVLPREEEFPFTVVVQTLPGTCEDPKAHTSFQISLNISYTGSRSESNMAIADVKMVSGFIPLKPTVKMLERSVHVSRTEVSNNHVLIYLDKVSNQTVNLSFTVQQDIPIRDLKPAVVKVYDYYEKDEFAVAKYSAPCSTDYGNA
Fold Change (α2m vs normal) Day 7 (gene complement factor B (1389470_at)): 3.3
Fold Change (α2m vs normal) Day 3 [1]: 0.5
Fold Change (α2m vs normal) Day 7 [1]: 0.2
Fold Change (α2m vs normal) Day 3 [2]: 0.5
Fold Change (α2m vs normal) Day 7 [2]: 3.6
Fold Change (α2m vs normal) Day 14 [2]: 2.0
Fold Change (α2m vs normal) Day 3 [3]: 0.5
Fold Change (α2m vs normal) Day 7 [3]: 3.4
Fold Change (α2m vs normal) Day 14 [3]: 2.0
Fold Change (α2m vs normal) Day 3 [4]: 0.4
Fold Change (α2m vs normal) Day 7 [4]: 3.7
Fold Change (α2m vs normal) Day 14 [4]: 2.2
Fold Change (α2m vs normal) Day 3 [5]: 0.4
Fold Change (α2m vs normal) Day 7 [5]: 4.2
Fold Change (α2m vs normal) Day 14 [5]: 2.0
Fold Change (α2m vs normal) Day 3 [6]: 0.5
Fold Change (α2m vs normal) Day 7 [6]: 3.9
Fold Change (α2m vs normal) Day 3 [7]: 0.5
Fold Change (α2m vs normal) Day 7 [7]: 0.4
Fold Change (α2m vs normal) Day 3 (gene decorin (1370956_at)): 3.7
Fold Change (α2m vs normal) Day 7 (gene decorin (1370956_at)): 12.6
Fold Change (α2m vs normal) Day 3 [8]: 2.1
Fold Change (α2m vs normal) Day 7 [8]: 2.1
Fold Change (α2m vs normal) Day 3 [9]: 0.4
Fold Change (α2m vs normal) Day 7 [9]: 2.9
Fold Change (α2m vs normal) Day 14 [9]: 2.2
Fold Change (α2m vs normal) Day 3 [10]: 0.5
Fold Change (α2m vs normal) Day 7 [10]: 2.1
Fold Change (α2m vs normal) Day 3 [11]: 3.9
Fold Change (α2m vs normal) Day 7 [11]: 7.4
Fold Change (α2m vs normal) Day 3 [12]: 2.2
Fold Change (α2m vs normal) Day 7 [12]: 2.1
Fold Change (α2m vs normal) Day 3 [13]: 5.8
Fold Change (α2m vs normal) Day 7 [13]: 4.2
Fold Change (α2m vs normal) Day 3 [14]: 0.5
Fold Change (α2m vs normal) Day 7 [14]: 2.5
Fold Change (α2m vs normal) Day 3 (gene lumican (1367749_at)): 6.1
Fold Change (α2m vs normal) Day 7 (gene lumican (1367749_at)): 4.1
Fold Change (α2m vs normal) Day 14 (gene lumican (1367749_at)): 0.4
Fold Change (α2m vs normal) Day 3 (gene lysozyme (1370154_at)): 7.8
Fold Change (α2m vs normal) Day 7 (gene lysozyme (1370154_at)): 2.8
Fold Change (α2m vs normal) Day 3 [15]: 0.5
Fold Change (α2m vs normal) Day 7 [15]: 5.3
Fold Change (α2m vs normal) Day 14 [15]: 2.2
Fold Change (α2m vs normal) Day 3 [16]: 5.1
Fold Change (α2m vs normal) Day 7 [16]: 2.1
Fold Change (α2m vs normal) Day 3 [17]: 3.7
Fold Change (α2m vs normal) Day 7 [17]: 3.4
Fold Change (α2m vs normal) Day 3 [18]: 0.3
Fold Change (α2m vs normal) Day 7 [18]: 17.5
Fold Change (α2m vs normal) Day 14 [18]: 2.4
Fold Change (α2m vs normal) Day 3 [19]: 0.3
Fold Change (α2m vs normal) Day 7 [19]: 13.2
Fold Change (α2m vs normal) Day 14 [19]: 2.3
Fold Change (α2m vs normal) Day 3 [20]: 3.0
Fold Change (α2m vs normal) Day 7 [20]: 3.3
Fold Change (α2m vs normal) Day 3 [21]: 0.5
Fold Change (α2m vs normal) Day 7 [21]: 2.8
Fold Change (α2m vs normal) Day 14 [21]: 2.9
Fold Change (α2m vs normal) Day 3 [22]: 0.5
Fold Change (α2m vs normal) Day 7 [22]: 0.2
Fold Change (α2m vs normal) Day 3 [23]: 0.4
Fold Change (α2m vs normal) Day 7 [23]: 2.7
Fold Change (α2m vs normal) Day 3 [24]: 0.5
Fold Change (α2m vs normal) Day 7 [24]: 0.2
Fold Change (α2m vs normal) Day 3 [25]: 0.5
Fold Change (α2m vs normal) Day 7 [25]: 0.4
Fold Change (α2m vs normal) Day 3 [26]: 0.4
Fold Change (α2m vs normal) Day 7 [26]: 0.2
Fold Change (α2m vs normal) Day 3 [27]: 2.0
Fold Change (α2m vs normal) Day 7 [27]: 5.6
Fold Change (α2m vs normal) Day 3 [28]: 0.5
Fold Change (α2m vs normal) Day 7 [28]: 0.2
Fold Change (α2m vs normal) Day 3 [29]: 7.3
Fold Change (α2m vs normal) Day 7 [29]: 0.4
Fold Change (α2m vs normal) Day 3 [30]: 0.5
Fold Change (α2m vs normal) Day 7 [30]: 0.2
Fold Change (α2m vs normal) Day 3 [31]: 0.4
Fold Change (α2m vs normal) Day 7 [31]: 2.6
Fold Change (α2m vs normal) Day 3 [32]: 0.5
Fold Change (α2m vs normal) Day 7 [32]: 0.4
Fold Change (α2m vs normal) Day 3 [33]: 0.5
Fold Change (α2m vs normal) Day 7 [33]: 0.2
Fold Change (α2m vs normal) Day 14 [33]: 2.3
Fold Change (α2m vs normal) Day 3 [34]: 0.5
Fold Change (α2m vs normal) Day 7 [34]: 2.1
Fold Change (α2m vs normal) Day 3 (gene — (1393766_at, AI112375)): 0.4
Fold Change (α2m vs normal) Day 7 (gene — (1393766_at, AI112375)): 0.3
Fold Change (α2m vs normal) Day 14 (gene — (1393766_at, AI112375)): 3.6
Fold Change (α2m vs normal) Day 3 (gene — (1394837_at, BF405797)): 0.3
Fold Change (α2m vs normal) Day 7 (gene — (1394837_at, BF405797)): 0.2
Fold Change (α2m vs normal) Day 3 (gene — (1395129_at, BE107340)): 0.5
Fold Change (α2m vs normal) Day 7 (gene — (1395129_at, BE107340)): 0.3
